How the values were obtained:
ubiquitin (wild type) = ubiquitin (wild type) (UniProt P0CG48); assay: NMR titration; 1H-15N-HSQC titrations of ubiquitin with UBXD1, UBXD1-eUBX R305A, PUB or the UBX extension; 50 mM sodium potassium phosphate pH 7.5, 25 °C
[1] = target: UBXD1 UBX extension (269–330), for fluorescence anisotropy (human) (UniProt Q9BZV1); assay: fluorescence polarisation; fluorescence anisotropy; Atto594-labeled UBXD1 proteins, p97 constructs titrated; 50 mM NaKPi pH 7.5, 25 °C; all fitted with stoichiometry n = 1

Kd (ubiquitin (wild type))	Kd [1]	Substance
155 µM		UBXD1-eUBX R305A (from UniProt Q9BZV1 1-441) (domain or fragment)
	191 µM	p97-wt (1–806) (from UniProt P55072 1-806) (enzyme)

— publication PMC10241913
